Results as given in PMC7138820, “Acetylation of histone H3K27 signals the transcriptional elongation for estrogen receptor alpha” (Communications Biology, 2020).

Target: the molecule itself
Assay: crystal structure; AFF4 900–1163, sitting-drop vapor diffusion at 16 °C, 2.2 M NaH2PO4, 0.4 M K2HPO4, 0.1 M MES pH 6.6; SAD phasing; 2.2 Å

B1: AFF4 fragment encompassing residues 900–1163 (crystallised) (domain or fragment, human, UniProt Q9UHB7 900-1163, looked up)
chain: KPRRTKLVFDDRNYSADHYLQEAKKLKHNADALSDRFEKAVYYLDAVVSFIECGNALEKNAQESKSPFPMYSETVDLIKYTMKLKNYLAPDATAADKRLTVLCLRCESLLYLRLFKLKKENALKYSKTLTEHLKNSYNNSQAPSPGLGSKAVGMPSPVSPKLSPGNSGNYSSGASSASASGSSVTIPQKIHQMAASYVQVTSNFLYATEIWDQAEQLSKEQKEFFAELDKVMGPLIFNASIMTDLVRYTRQGLHWLRQDAKLIS
notes: A selenomethionyl derivative was made for SAD phasing; also called AFF4 C-terminal dimerization domain; AFF4 homodimerization domain; source: E. coli BL21(DE3) codon-plus RIL, purified (Ni-chelating resin, HiTrap SP, Superdex 75); not shown: His, N-terminal, cleaved; SUMO, N-terminal, cleaved
B1: binds.
